How the values were obtained:
[1] = Release from L-PLA-co PEG5000 hydrogel-wall balloons in aqueous media; type: physicochemical; conditions: 1 cm balloons of L-PLA-co PEG5000 triblock or 50:50 mixture with L-PLA, 200 and 300 micron wall thicknesses
Method: In a similar experiment, biodegradable balloons of 1 cm diameter were prepared from triblock copolymers of L-PLA-co PEG5000, Mw=80,000 or in a 50:50 mixture with L-PLA Mw=120,000 by the solvent casting on a gelatin mold method. Balloons with 200 and 300 micron wall thicknesses were prepared. These balloons swell when inserted in aqueous media to form hydrogel walls which are permeable to water soluble molecules.

[2] = Release of loaded agents from poly(caprolactone-L-lactide)/PEG porogen balloons; type: physicochemical; conditions: for period of constant release from balloon: loaded with 10% w/v solution
Method: In a typical experiment, dichloromethane solutions of poly(caprolactone-L-lactide) 70:30 w/w, Mw=100,000 and polyethylene glycol Mw=400 (PEG400) and PEG2000 mixed at a 1, 5, 10 and 20 w/w % per polymer were used for producing balloons by dipping as described above. The balloons were immersed in water to allow the leach-out of the water soluble PEG. The balloons were analyzed for pore size, uniformity of pores throughout the membrane, and diffusion of LHRH hormone and BSA (bovine serum albumin) as representative protein. Uniform micron size holes of a similar size were generated for the 1 and 5% PEG but more holes for the 5%, while the 20% PEG generated much larger holes throughout the wall which also affects the strength of the wall. […] The balloon remain inflated for about 4 months in 0.1M phosphate buffer solution at 37° C. before signs of degradation occur measured by a significant decrease in molecular weight and change in the flexibility and clarity of the balloons. In a continuation experiment, lyophilized powder of LHRH (10 mg) on dextrose (100 mg) was dispersed in glycerol (100 mg) and injected into the 10 mm diameter balloon and release under physiological conditions was determined.

| Compound | release from hydrogel-wall balloons [1] | release behaviour in comparison with the other loaded agents ([2]; poly(caprolactone-L-lactide)/PEG balloons) | period of constant release from balloon ([2]; 5% PEG balloons of poly(caprolactone-L-lactide) 70:30) | period of constant release from balloon ([2]; 20% PEG balloons of poly(caprolactone-L-lactide) 70:30) | release of native LHRH from balloon, determined by HPLC ([2]; lyophilized LHRH (10 mg) on dextrose (100 mg) dispersed in glycerol (100 mg), 10 mm diameter balloon, physiological conditions) |
| --- | --- | --- | --- | --- | --- |
| O=c1[nH]cc(F)c(=O)[nH]1 [5-FU] | constantly release at high amounts for weeks | released much faster for a shorter time period at a zero order profile | – | – | – |
| CN(Cc1cnc2nc(N)nc(N)c2n1)c1ccc(C(=O)N[C@@H](CCC(=O)O)C(=O)O)cc1 [methotrexate] | constantly release at high amounts for weeks | – | – | – | – |
| LHRH: LHRH hormone, therapeutic peptide loaded in the balloon | released at low concentrations over time | – | a few months | weeks | constantly released for weeks |

— patent US8480647B2, “Delivery device for delivering bioactive agents to internal tissue in a body” (Bioprotect Ltd., priority 2007, dated 2013)
